# Measurements published in patent publication US20220089698A1 (published 2022).
# T1: Cyno FcγRIIB (cynomolgus macaque, UniProt A0A140HDN4 43-217)
# T1 construct: also called cynomolgus macaque FcγRIIB
# T1 sequence: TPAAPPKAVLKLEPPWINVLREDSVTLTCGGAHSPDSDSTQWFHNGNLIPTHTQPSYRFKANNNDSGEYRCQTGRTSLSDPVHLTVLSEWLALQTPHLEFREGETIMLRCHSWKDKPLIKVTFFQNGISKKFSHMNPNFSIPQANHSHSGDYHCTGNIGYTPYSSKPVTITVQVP
# T2: Cyno FcγRIIA (cynomolgus macaque, UniProt A0A140HDM9 28-216)
# T2 construct: also called cynomolgus macaque FcγRIIA
# T2 sequence: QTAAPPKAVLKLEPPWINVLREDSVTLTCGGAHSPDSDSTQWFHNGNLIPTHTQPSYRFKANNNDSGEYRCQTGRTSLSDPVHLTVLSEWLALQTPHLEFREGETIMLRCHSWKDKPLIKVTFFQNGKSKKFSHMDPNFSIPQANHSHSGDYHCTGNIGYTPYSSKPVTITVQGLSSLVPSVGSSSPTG
# B1: Antibody A-1 (antibody, human IgG1, kappa)
# heavy: QVQLLQSGAAVTKPGASVRVSCEASGYNIRDYFIHWWRQAPGQGLQWVGWINPKTGQPNNPRQFQGRVSLTRHASWDFDTFSFYMDLKALRSDDTAVYFCARQRSDYWDFDVWGSGTQVTVSSASTKGPSVFPLAPSSKSTSGGTAALGCLVKDYFPEPVTVSWNSGALTSGVHTFPAVLQSSGLYSLSSVVTVPSSSLGTQTYICNVNHKPSNTKVDKKVEPKSCDKTHTCPPCPAPELLAGPDVFLFPPKPKDTLMISRTPEVTCVVVDVSHEDPEVKFNWYVDGVEVHNAKTKPREEQYNSTYRVVSVLTVLHQDWLNGKEYKCKVSNKALPLPEEKTISKAKGQPREPQVYTLPPSREEMTKNQVSLTCLVKGFYPSDIAVEWESNGQPENNYKTTPPVLDSDGSFFLYSKLTVDKSRWQQGNVFSCSVLHEALHSHYTQKSLSLSPGK
# light: DIQMTQSPSSLSASVGDTVTITCQANGYLNWYQQRRGKAPKLLIYDGSKLERGVPSRFSGRRWGQEYNLTINNLQPEDIATYFCQVYEFVVPGTRLDLKRTVAAPSVFIFPPSDEQLKSGTASVVCLLNNFYPREAKVQWKVDNALQSGNSQESVTEQDSKDSTYSLSSTLTLSKADYEKHKVYACEVTHQGLSSPVTKSFNRGEC
# B2: Antibody 1.52.64-1 (antibody, human IgG1, kappa)
# heavy: QVQLLQSGAAVTKPGASVRVSCEASGYNIRDYFIHWWRQAPGQGLQWVGWINPKTGQPNNPRQFQGRVSLTRHASFDFDTFSFYMDLKALRSDDTAVYFCARQRSDYWDFDVWGSGTQVTVSSASTKGPSVFPLAPSSKSTSGGTAALGCLVKDYFPEPVTVSWNSGALTSGVHTFPAVLQSSGLYSLSSVVTVPSSSLGTQTYICNVNHKPSNTKVDKKVEPKSCDKTHTCPPCPAPELLAGPDVFLFPPKPKDTLMISRTPEVTCVVVDVSHEDPEVKFNWYVDGVEVHNAKTKPREEQYNSTYRVVSVLTVLHQDWLNGKEYKCKVSNKALPLPEEKTISKAKGQPREPQVYTLPPSREEMTKNQVSLTCLVKGFYPSDIAVEWESNGQPENNYKTTPPVLDSDGSFFLYSKLTVDKSRWQQGNVFSCSVLHEALHSHYTQKSLSLSPGK
# light: DIQMTQSPSSLSASVGDTATITCQANGYLNWYQQRRGKAPKLLIYDGSKLERGVPSRFSGRRWGQEYNLTINNLQPEDIATYFCQVYEFVVPGTRLDLKRTVAAPSVFIFPPSDEQLKSGTASVVCLLNNFYPREAKVQWKVDNALQSGNSQESVTEQDSKDSTYSLSSTLTLSKADYEKHKVYACEVTHQGLSSPVTKSFNRGEC
# B3: Antibody A (antibody, human IgG1, kappa)
# heavy: not shown
# light: DIQMTQSPSSLSASVGDTVTITCQANGYLNWYQQRRGKAPKLLIYDGSKLERGVPSRFSGRRWGQEYNLTINNLQPEDIATYFCQVYEFVVPGTRLDLKRTVAAPSVFIFPPSDEQLKSGTASVVCLLNNFYPREAKVQWKVDNALQSGNSQESVTEQDSKDSTYSLSSTLTLSKADYEKHKVYACEVTHQGLSSPVTKSFNRGEC
# Legend:
# HIV gp120 Bal = HIV gp120 Bal (HIV-1)
# HIV gp120 CAAN = HIV gp120 CAAN (HIV-1)
# HIV gp120 REJO = HIV gp120 REJO (HIV-1)
# Cyno FcγRIIB = molecular target: T1, Cyno FcγRIIB; test: SPR (Biacore 4000), antibody amine coupled to CM4 chip, receptor as analyte, steady-state fit
# Protocol: (§1) The in vitro binding dissociation constants (KD) of selected antibodies described herein for human and cynomolgus macaque (cyno) Fc binding receptors (FcγRs, FcRn) were determined using the Biacore 4000 surface plasmon resonace (SPR) biosensor, and either C1 or CM4 sensor chips (GE Healthcare).
# (§2) To determine cynomolgus macaque FcγRIIA, FcγRIIB, FcγRIII and FcγRI binding affinities each test antibody was amine coupled to a CM4 sensor chip at two densities (about 100 RU and about 800 RU). Cyno FcγRIIA and FcγRIIB were tested in a two-fold concentration series up to 1 μM. FcγRIII was tested in a two-fold concentration up to 500 nM. Cyno FcγRT was tested for binding using a two-step titration (3 nM and 30 nM). The response data for FcγRIIA, FcγRIIB, FcγRIII at steady-state were fit to a simple binding isotherm. Responses for FcγRI were fit to a simple kinetic model.
# Cyno FcγRIIA = molecular target: T2, Cyno FcγRIIA; test: as above
# Protocol: as §1, §2
Binder,EC50 (HIV gp120 Bal),EC50 (HIV gp120 CAAN),EC50 (HIV gp120 REJO),Kd (Cyno FcγRIIB),Kd (Cyno FcγRIIA)
B1,0.06 nM,2.17 nM,2.37 nM,240 nM,1100 nM
B2,0.07 nM,3.79 nM,4.02 nM,280 nM,1180 nM
B3,0.05 nM,1.84 nM,2.21 nM,895 nM,2000 nM
